In paper PMC11151596, “Improving the enzymatic activity and stability of N-carbamoyl hydrolase using deep learning approach” (Microbial Cell Factories, 2024) one finds Km, kcat and kcat/Km data, which are given here for six substances.

This data set deals with T1, NC(=O)NC(C(=O)O)c1ccc(O)cc1.
T1 construct: pET-28a(+)-Case, N- and C-terminal His6 tags, expressed in E. coli BL21(DE3), Ni-NTA purified, about 37 kDa
Put plainly: HPLC of D-HPG formed, double reciprocal plot. Type of data set: biochemical, Agrobacterium sp. KNK712. To be noted: 50 mM Tris-HCl pH 7.5, 65 °C, 0.1-10.0 mM CpHPG. An excerpt: HPLC of D-HPG formed, double reciprocal plot on DCase (N-carbamoyl-D-amino acid amidohydrolase, EC 3.5.1.77; N-carbamoyl hydrolase)
The Km is the substrate concentration at which the rate is half of its maximum. Usually kcat stands for the number of substrate molecules converted per active site and unit of time at saturation. Usually kcat/Km stands for the turnover number divided by the Michaelis constant. As to “DCase (N-carbamoyl-D-amino acid amidohydrolase, EC 3.5.1.77; N-carbamoyl hydrolase) (Agrobacterium sp. KNK712; A302C/Q4C/T212S)”, the Km amounted to 2120 ± 260 µM, the kcat came out at 38.1 ± 0.658 s⁻¹ and the kcat/Km is 18000 ± 722 M⁻¹ s⁻¹.

For the substance “DCase (N-carbamoyl-D-amino acid amidohydrolase, EC 3.5.1.77; N-carbamoyl hydrolase) (Agrobacterium sp. KNK712; Q4C)”, the Km is 2440 ± 460 µM, the kcat is 12.6 ± 0.371 s⁻¹ and the kcat/Km is 5150 ± 265 M⁻¹ s⁻¹.

For the substance “DCase (N-carbamoyl-D-amino acid amidohydrolase, EC 3.5.1.77; N-carbamoyl hydrolase) (Agrobacterium sp. KNK712; A302C/Q4C/T212V)”, the Km came out at 2190 ± 260 µM, the turnover number (kcat) is 32.9 ± 0.658 s⁻¹ and the kcat/Km was determined as 15000 ± 1200 M⁻¹ s⁻¹.

Turning to “DCase (N-carbamoyl-D-amino acid amidohydrolase, EC 3.5.1.77; N-carbamoyl hydrolase) (Agrobacterium sp. KNK712; A302C/Q4C/T212A)”, the Km was found to be 2380 ± 620 µM, the kcat was 30.4 ± 0.703 s⁻¹ and the catalytic efficiency (kcat/Km) stood at 12800 ± 572 M⁻¹ s⁻¹.

On to “DCase (N-carbamoyl-D-amino acid amidohydrolase, EC 3.5.1.77; N-carbamoyl hydrolase) (Agrobacterium sp. KNK712; A302C/Q4C/T212G)”, for which the Km was found to be 2340 ± 260 µM, the turnover number (kcat) was 36.7 ± 0.658 s⁻¹ and the kcat/Km was 15700 ± 939 M⁻¹ s⁻¹.

“DCase (N-carbamoyl-D-amino acid amidohydrolase, EC 3.5.1.77; N-carbamoyl hydrolase) (Agrobacterium sp. KNK712; A302C/Q4C)”: the Km worked out at 2560 ± 150 µM, the kcat amounted to 29.2 ± 0.733 s⁻¹ and the kcat/Km stood at 11400 ± 516 M⁻¹ s⁻¹.
